Results published in publication PMC4351136 (The FEBS journal, 2015).

Molecular target: T1, domain V of human β2GPI (human, UniProt P02749 263-345)
T1 sequence (looked up): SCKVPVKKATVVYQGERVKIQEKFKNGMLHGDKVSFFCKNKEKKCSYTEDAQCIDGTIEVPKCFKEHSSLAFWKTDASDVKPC
Experiment: ITC

Kd: 14 µM
dH: -4.3 ± 0.2 kcal/mol
stoichiometry N: 1.04 ± 0.03
B1: Asn36/Asp mutant of mouse A1 (domain or fragment)
chain: not shown
